Results on one molecule are retold here after paper PMC7653264 (2020).

As usually defined, the Kd is a measure of binding affinity in units of concentration.

Test [1] has as its target T1, GST-PCNA (UniProt P12004 1-261). Put plainly: ITC. In general terms: ITC needs no label: the signal is the heat of the interaction.
In test [2] the target is T1, GST-PCNA. Put plainly: ITC. The source holds these as a separate data set.

T1 sequence (P12004 whole entry): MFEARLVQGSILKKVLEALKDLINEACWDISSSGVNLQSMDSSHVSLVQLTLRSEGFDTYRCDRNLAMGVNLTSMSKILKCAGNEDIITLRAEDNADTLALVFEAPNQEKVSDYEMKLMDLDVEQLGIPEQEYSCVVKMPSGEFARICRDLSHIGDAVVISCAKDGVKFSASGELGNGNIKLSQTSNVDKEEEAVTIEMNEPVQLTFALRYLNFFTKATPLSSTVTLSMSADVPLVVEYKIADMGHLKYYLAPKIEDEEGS

The molecule AQDFKTDLR [H3K79me0 peptide (amino acids H3 75-83)] came in with a Kd with GST-PCNA [1] of 1.33 µM. In the test with GST-PCNA [2], the Ka was determined as 1.16e+06 M⁻¹.
